Reference: PMC11079029, “Intramolecular autoinhibition regulates the selectivity of PRPF40A tandem WW domains for proline-rich motifs” (Nature Communications, 2024)
Changes are numbered by the printed parent chain. Values joined by “and” are separate entries in the source; they are usually repeats but may differ in a detail not shown here. Identical values can stand only once. Each block holds one binder with its values, some of them ahead of it.

Key:
Conditions in all cases: both partners purified
[1] = target: T1, GB1-polyproline peptide P25; test: ITC; MicroCal PEAQ-ITC, 25 °C, 20 mM sodium phosphate pH 6.5, 100 mM NaCl; GB1-polyproline peptides in the cell, WW12 in the syringe (N sites >1: more than one WW tandem on one peptide); one-site model; apparent
T1 construct: common N-terminal residues after the TEV site (TEVsite-GAMSGS-peptide-SGSN); 25 consecutive prolines; common C-terminal residues; pET24 vector with 6xHis, GB1 and TEV site as N-terminal cassette, not cleaved; also called polyproline length 25; source: E. coli BL21(DE3), purified (Ni-NTA, SEC); not shown: GB1, N-terminal, kept
T1 chain: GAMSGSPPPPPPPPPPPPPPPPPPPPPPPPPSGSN

[2] = target: T2, GB1-polyproline peptide P22; test: as above
T2 construct: common N-terminal residues after the TEV site (TEVsite-GAMSGS-peptide-SGSN); 22 consecutive prolines; common C-terminal residues; pET24 vector with 6xHis, GB1 and TEV site as N-terminal cassette, not cleaved; also called polyproline length 22; source: E. coli BL21(DE3), purified (Ni-NTA, SEC); not shown: GB1, N-terminal, kept
T2 chain: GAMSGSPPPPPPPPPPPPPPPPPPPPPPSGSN

[3] = target: T3, GB1-polyproline peptide P29; test: as above
T3 construct: common N-terminal residues after the TEV site (TEVsite-GAMSGS-peptide-SGSN); 29 consecutive prolines; common C-terminal residues; pET24 vector with 6xHis, GB1 and TEV site as N-terminal cassette, not cleaved; also called polyproline length 29; source: E. coli BL21(DE3), purified (Ni-NTA, SEC); not shown: GB1, N-terminal, kept
T3 chain: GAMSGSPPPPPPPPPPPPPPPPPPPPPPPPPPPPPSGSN

[4] = target: T4, GB1-SF1 Pro CD (residues 539-639) (UniProt Q15637 539-639); test: ITC; MicroCal PEAQ-ITC, 25 °C, 20 mM sodium phosphate pH 6.5, 100 mM NaCl; GB1-tagged SF1/SF3A1 constructs in the syringe, WW12 in the cell (N sites <1: more than one WW tandem on one construct); one-site model; apparent
T4 construct: SF1 (splicing factor 1) residues 539-639; pET24 vector with 6xHis, GB1 and TEV site as N-terminal cassette, not cleaved; source: E. coli BL21(DE3), purified (Ni-NTA, SEC); not shown: GB1, N-terminal, kept
T4 sequence (looked up): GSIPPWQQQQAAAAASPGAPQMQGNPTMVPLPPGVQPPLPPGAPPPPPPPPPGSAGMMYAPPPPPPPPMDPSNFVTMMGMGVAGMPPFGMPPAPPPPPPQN

[5] = target: T5, GB1-SF1 Pro ABCD (residues 410-639) (UniProt Q15637 410-639); test: as above
T5 construct: SF1 (splicing factor 1) residues 410-639, the complete proline-rich C-terminal region; pET24 vector with 6xHis, GB1 and TEV site as N-terminal cassette, not cleaved; also called complete C-terminal region of SF1; source: E. coli BL21(DE3), purified (Ni-NTA, SEC); not shown: GB1, N-terminal, kept
T5 sequence (looked up): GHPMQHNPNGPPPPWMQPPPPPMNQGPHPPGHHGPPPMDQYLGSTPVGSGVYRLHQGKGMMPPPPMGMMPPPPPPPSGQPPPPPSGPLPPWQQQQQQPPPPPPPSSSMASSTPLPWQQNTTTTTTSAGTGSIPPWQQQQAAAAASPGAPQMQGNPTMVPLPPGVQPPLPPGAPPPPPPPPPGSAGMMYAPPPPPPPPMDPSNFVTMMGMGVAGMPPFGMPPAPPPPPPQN

[6] = target: T6, GB1-SF3A1 C-ter Pro (residues 552-683) (UniProt Q15459 552-683); test: as above
T6 construct: pET24 vector with 6xHis, GB1 and TEV site as N-terminal cassette, not cleaved; source: E. coli BL21(DE3), purified (Ni-NTA, SEC); not shown: GB1, N-terminal, kept
T6 sequence (looked up): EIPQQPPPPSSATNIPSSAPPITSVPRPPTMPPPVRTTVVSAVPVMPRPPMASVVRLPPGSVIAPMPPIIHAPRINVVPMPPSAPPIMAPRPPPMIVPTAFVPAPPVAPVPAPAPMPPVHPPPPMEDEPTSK

[7] = target: T7, GB1-SF1 Pro BC (residues 468-594) (UniProt Q15637 468-594); test: as above
T7 construct: SF1 (splicing factor 1) residues 468-594; pET24 vector with 6xHis, GB1 and TEV site as N-terminal cassette, not cleaved; source: E. coli BL21(DE3), purified (Ni-NTA, SEC); not shown: GB1, N-terminal, kept
T7 sequence (looked up): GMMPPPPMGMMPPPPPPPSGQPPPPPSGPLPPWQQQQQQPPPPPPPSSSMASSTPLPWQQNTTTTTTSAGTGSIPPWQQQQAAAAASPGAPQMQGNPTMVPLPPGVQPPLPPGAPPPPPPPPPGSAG

[8] = target: T8, GB1-SF1 Pro BCD (residues 468-639) (UniProt Q15637 468-639); test: as above
T8 construct: SF1 (splicing factor 1) residues 468-639; pET24 vector with 6xHis, GB1 and TEV site as N-terminal cassette, not cleaved; source: E. coli BL21(DE3), purified (Ni-NTA, SEC); not shown: GB1, N-terminal, kept
T8 sequence (looked up): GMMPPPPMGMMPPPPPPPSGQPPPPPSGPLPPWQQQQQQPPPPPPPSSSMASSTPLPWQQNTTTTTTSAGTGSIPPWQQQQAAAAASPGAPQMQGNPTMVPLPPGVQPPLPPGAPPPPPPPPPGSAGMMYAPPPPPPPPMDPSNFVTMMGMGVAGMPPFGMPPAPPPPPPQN

[9] = target: T9, PRPF40A N-ext-WW12 (residues 56-236) (human, UniProt O75400 56-236); test: ITC; MicroCal PEAQ-ITC, 25 °C, 20 mM sodium phosphate pH 6.5, 100 mM NaCl; PRPF40A constructs and GB1-tagged SF1 16-mer peptides; who was in the syringe is not stated for these panels (Fig. 2B, Fig. 5C); one-site model
T9 construct: PRPF40A isoform 1, residues 56-236: N-terminal proline-rich region and both WW domains; pETM11 vector; also called Nter Ext WW12; N-terminal extended WW12 construct; source: E. coli BL21(DE3), purified (Ni-NTA, TEV cleavage, reverse Ni-NTA, SEC); not shown: His6, N-terminal, cleaved
T9 sequence (looked up): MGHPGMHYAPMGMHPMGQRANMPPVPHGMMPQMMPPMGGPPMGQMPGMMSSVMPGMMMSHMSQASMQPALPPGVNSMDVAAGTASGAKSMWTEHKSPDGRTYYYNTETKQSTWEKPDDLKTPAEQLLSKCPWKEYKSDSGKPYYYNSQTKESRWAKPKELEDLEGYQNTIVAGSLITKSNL

[10] = target: T10, PRPF40A N-ext-WW12 mutant (PPVP and PALPP motifs changed to alanine residues) (human, UniProt O75400 56-236, 78-81 PPVP to AAAA | 123-127 PALPP to AAAAA); test: as above
T10 construct: PRPF40A isoform 1, residues 56-236, with the two motifs PPVP (78-81) and PALPP (123-127) changed to alanine residues; made by site-directed mutagenesis of N-ext-WW12; also called Nter Ext WW12 MUTANT; mutated version of the N-extWW12; source: E. coli BL21(DE3), purified (Ni-NTA, TEV cleavage, reverse Ni-NTA, SEC); not shown: His6, N-terminal, cleaved
T10 sequence (looked up): T9 sequence (looked up) with P23A, P24A, V25A, P26A, P68A, L70A, P71A, P72A

stoichiometry N [1]: 2.21 and 2.39 and 2.3
stoichiometry N [2]: 1.41 and 1.37 and 1.39
stoichiometry N [3]: 2.38 and 2.56 and 2.47
Kd [4]: 2.83 µM and 4.32 µM and 4.26 µM and 3.8 µM
Kd [5]: 5.41 µM and 4.4 µM and 4.91 µM
Kd [6]: 23.8 µM and 14.8 µM and 19.3 µM
Kd [7]: 3.63 µM and 7.76 µM and 9.11 µM and 6.83 µM
Kd [8]: 2.93 µM and 4.36 µM and 3.65 µM
B1: PRPF40A WW12 (tandem WW domains, residues 141-236) (domain or fragment, human, UniProt O75400 141-236, looked up)
chain: GAKSMWTEHKSPDGRTYYYNTETKQSTWEKPDDLKTPAEQLLSKCPWKEYKSDSGKPYYYNSQTKESRWAKPKELEDLEGYQNTIVAGSLITKSNL
notes: pETM11 vector (NcoI/KpnI); also called PRPF40A WW tandem; isolated WW domains; source: E. coli BL21(DE3), purified (Ni-NTA, TEV cleavage, reverse Ni-NTA, SEC); not shown: His6, N-terminal, cleaved

Kd [9]: 9.19 µM and 8.22 µM and 8.71 µM
Kd [10]: 2440 nM and 1980 nM and 2210 nM
B2: GB1-SF1(575-590) 16-mer peptide, SF1 PRPF40A WW binding site (peptide)
chain: GAMSGSPPLPPGAPPPPPPPPPSGSN
notes: common N-terminal residues after the TEV site (TEVsite-GAMSGS-peptide-SGSN); SF1 (splicing factor 1) residues 575-590; common C-terminal residues; pET24 vector with 6xHis, GB1 and TEV site as N-terminal cassette, not cleaved for ITC; also called SF1_(WWbs); SF1 WWbs; source: E. coli BL21(DE3), purified (Ni-NTA, SEC); not shown: GB1, N-terminal, kept
